Data on 4 molecules can be found in article PMC8073719, “Biochemical and Biophysical Characterization of Recombinant Human 3-Phosphoglycerate Dehydrogenase” (International Journal of Molecular Sciences, 2021).

The term kcat denotes the number of substrate molecules converted per active site and unit of time at saturation. Broadly, the Kd is the free concentration of one partner at which half of the binding sites on the other are occupied at equilibrium, for simple one-to-one binding. The term stoichiometry N denotes a count of units in the complex or per binding partner. What is called kcat/Km is the turnover number divided by the Michaelis constant.

The target of data set [1] is T1, hPHGDH (Homo sapiens, UniProt O43175).
T1 sequence (O43175 1-533): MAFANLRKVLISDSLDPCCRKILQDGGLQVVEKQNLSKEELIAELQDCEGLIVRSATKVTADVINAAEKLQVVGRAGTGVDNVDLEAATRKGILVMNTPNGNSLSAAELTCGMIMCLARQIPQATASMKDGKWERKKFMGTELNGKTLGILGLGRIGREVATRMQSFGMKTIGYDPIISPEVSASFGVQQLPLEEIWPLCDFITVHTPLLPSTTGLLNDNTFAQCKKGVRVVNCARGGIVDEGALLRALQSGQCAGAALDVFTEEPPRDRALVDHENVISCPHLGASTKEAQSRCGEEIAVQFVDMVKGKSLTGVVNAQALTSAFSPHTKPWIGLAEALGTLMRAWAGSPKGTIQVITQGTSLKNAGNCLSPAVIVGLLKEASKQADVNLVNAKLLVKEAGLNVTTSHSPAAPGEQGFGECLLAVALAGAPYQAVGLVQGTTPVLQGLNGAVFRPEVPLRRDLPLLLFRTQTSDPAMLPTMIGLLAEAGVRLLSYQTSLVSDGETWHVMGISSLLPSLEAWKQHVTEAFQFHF
The experiment in a line: hPHGDH reverse reaction kinetics (decrease in NADH fluorescence at 450 nm). To be noted: for kcat: per monomer. From the text:
The latter assay was used to determine the apparent kinetic parameters on alternative substrates.

For data set [2], the target named is T1, hPHGDH. The experiment in a line: Ligand binding by quenching of protein fluorescence at 330 nm.
In data set [3] the target is truncated hPHGDH form. On the set-up: method as in PMID 29262655. To be noted: isothermal calorimetry; cited from earlier work.
In data set [4] the target is T1, hPHGDH. The experiment in a line: Temperature-ramp unfolding (melting temperature) with cofactors. The class given is binding. On the set-up: His-tagged full-length hPHGDH was expressed in BL21(DE3) E. coli cells; made in house; host or cells: E. coli BL21(DE3).
Data set [5] deals with E. coli PHGDH. The settings on record: reverse reaction; cited from earlier work.
For data set [6], the target named is T1, hPHGDH. Nature of the data set: Effect of salts, phosphate and serine synthesis metabolites on hPHGDH activity (hydrazine assay). The class given is biochemical. On the set-up: His-tagged full-length hPHGDH was expressed in BL21(DE3) E. coli cells; made in house; host or cells: E. coli BL21(DE3). To be noted: up to 50 mM final concentration. From the text: The effects of KCl, NaCl, MgCl2 and CaCl2 and of pH and temperature on enzyme activity and stability were investigated using the hydrazine assay. […] The dependence of activity on pH was fitted using an equation for three pKa values, according to [44], providing apparent values unrelated to microscopic ones.

Data set [7] has as its system M. tuberculosis PHGDH. The settings on record: reverse reaction; cited from earlier work.
Data set [8] can be described thus: Maximal solubility of inhibitor stock. The class given is physicochemical. The settings on record: dissolved in DMSO.
The target in data set [9] is T1, hPHGDH. The experiment in a line: Inhibition of hPHGDH activity by inhibitors (hydrazine assay). It counts as biochemical. On the set-up: His-tagged full-length hPHGDH was expressed in BL21(DE3) E. coli cells; made in house; host or cells: E. coli BL21(DE3). To be noted: kinetics on 3PG at increasing inhibitor concentration.
Data set [10] concerns the molecule itself. The experiment in a line: SEC; Superdex 200 Increase column, potassium phosphate pH 7.0 (20 mM with 0.15 M NaCl); major peak approx. 240 kDa; monomers to tetramer. A general note: SEC sorts molecules by how far they enter the pores of the column.
Substrate in data set [11]: O=C(O)CC(O)C(=O)O
Nature of the data set: purified protein, by the assay type. The class given is biochemical, human. To be noted: hydrazine assay, pH 7.0.

Substrate in data set [12]: NC(=O)c1ccc[n+]([C@@H]2O[C@H](COP(=O)(O)OP(=O)(O)OC[C@H]3O[C@@H](n4cnc5c(N)ncnc54)[C@H](O)[C@@H]3O)[C@@H](O)[C@H]2O)c1
The experiment in a line: purified protein, by the assay type. The class given is biochemical, human. The settings on record: 2.5 mM 3PG, pH 7.0; for Km: other: NAD+ varied, Figure S3C.

Data set [13] deals with the molecule itself. The experiment in a line: SEC; Superdex 200 Increase column, increasing potassium phosphate pH 7.0 (100, 250, 500 mM; 0.15 M NaCl added at 100 mM); minor peak ~480 kDa confirmed by anti-His Western blot; tetramers to octamer.
Substrate in data set [14]: NC(=O)C1=CN([C@@H]2O[C@H](COP(=O)(O)OP(=O)(O)OC[C@H]3O[C@@H](n4cnc5c(N)ncnc54)[C@H](O)[C@@H]3O)[C@@H](O)[C@H]2O)C=CC1
Nature of the data set: purified protein, by the assay type. The settings on record: other: reverse reaction, NADH varied, 0.5 mM PHP, 37 °C, pH 7.0.

Substrate in data set [15]: O=C(O)CC(=O)C(=O)O
Nature of the data set: purified protein, by the assay type. The settings on record: other: reverse reaction, substrate varied, 5 mM NADH, 37 °C, pH 7.0.

Substrate in data set [16]: O=C(O)C(=O)COP(=O)(O)O
Nature of the data set: purified protein, by the assay type. The settings on record: pH 7.0.

Substrate in data set [17]: C[C@@H](O)C(=O)O
Nature of the data set: purified protein, by the assay type. The settings on record: other: forward reaction, substrate varied, 1.5 mM NAD^+, hydrazine assay, 37 °C, pH 7.0, per monomer.

Substrate in data set [18]: CC(O)CC(=O)O
The experiment in a line: purified protein, by the assay type. To be noted: hydrazine assay, pH 7.0.

Substrate in data set [19]: O=C(O)C(O)C(O)C(=O)O
The experiment in a line: purified protein, by the assay type. To be noted: other: forward reaction, substrate varied, 1.5 mM NAD^+, hydrazine assay, 37 °C, pH 7.0.

Substrate in data set [20]: O=C(O)C(O)COP(=O)(O)O
The experiment in a line: purified protein, by the assay type. To be noted: pH 7.0.

Where [21] appears, read: reverse reaction, NADH varied, 0.5 mM PHP, 37 °C, pH 7.0.
[22] abbreviates: other: forward reaction, substrate varied, […] NAD^+, 37 °C.
The mark [23] stands for this setting: other: reverse reaction (discussion value).
[24] abbreviates: other: reverse reaction, substrate varied, 150 µM NADH, 37 °C.
The mark [25] stands for this setting: other: reverse reaction, substrate varied, 5 mM NADH, 37 °C.
The mark [26] stands for this setting: other: forward reaction, substrate varied, 1.5 mM NAD^+, 37 °C.
[27] abbreviates: other: forward reaction, substrate varied, 120 µM NAD^+, PSAT-coupled (1) and hydrazine (2) assays, 37 °C.
The mark [28] stands for this setting: other: forward reaction, substrate varied, 1.5 mM NAD^+, hydrazine assay, 37 °C.

Where “and” joins values, the source holds several entries; their conditions need not be identical. Equal values may be shown once.

Take `NC(=O)C1=CN([C@@H]2O[C@H](COP(=O)(O)OP(=O)(O)OC[C@H]3O[C@@H](n4cnc5c(N)ncnc54)[C@H](O)[C@@H]3O)[C@@H](O)[C@H]2O)C=CC1` [NADH]: the Km in data set [1] (setting [21]) is 560 µM. Further, the turnover number (kcat) in [1] (setting [21]) was 3.4 s⁻¹. In addition, the “maximal rate of Michaelis–Menten fit” value in data set [1] (reverse reaction, NADH varied, 0.5 mM PHP, Figure S4B) is 3.3684. Also, the equilibrium dissociation constant (Kd) in data set [2] (Kd (NAD^+; main phase of NADH binding), discussion value) was around 130 µM; in [2] (Kd, first phase, free enzyme, 15 °C), 0.49 ± 0.03 µM; in data set [2] (Kd, second phase, free enzyme, 15 °C), 168 µM and 169 µM; in [3] it was 0.2 µM. For the same molecule, the “amplitude of protein fluorescence quenching, first phase” value in data set [2] (free enzyme) is around 35%. The “amplitude of protein fluorescence quenching, second phase” value in [2] (free enzyme) turned out to be 65%. In addition, the “Tm, circular dichroism signal at 280 nm” value in [4] (120 µM NAD^+ or 100 µM NADH, protein alone 47.5) was 51.0 °C. In [4] (+120 μM NAD^+ or +100 μM NADH, hPHGDH alone 47.2 ± 0.5), the “Tm, CD (220 nm)” value is 51.0 ± 0.3 °C. Moreover, the “Tm, Fluorescence (330 nm)” value in data set [4] (+120 μM NAD^+ or +100 μM NADH, hPHGDH alone 48.4 ± 2.1) was 55.7 °C and 55.7 ± 0.1 °C.
On to `O=C(O)C(=O)COP(=O)(O)O` [PHP, 3-phosphohydroxypyruvate], for which the Ki in [1] (Ki (substrate inhibition), reverse reaction, 150 µM NADH, 37 °C, pH 7.0) is 2230 µM; in data set [1] (Ki (substrate inhibition), reverse reaction, 5 mM NADH, 37 °C, pH 7.0), 1260 µM; in [1] (Ki of fit with substrate inhibition, reverse reaction, 150 µM NADH, Figure S4A) it was 2230 µM; in [1] (Ki of fit with substrate inhibition, reverse reaction, 5 mM NADH, Figure S4A,C,D), 1260 µM. Also, in [1] (higher than for the forward reaction on 3PG), the “kinetic efficiency kcat/Km ratio, reverse reaction vs forward reaction on 3PG” value is 20 fold. For the same molecule, the “maximal rate of fit with substrate inhibition” value in data set [1] (reverse reaction, 150 µM NADH, Figure S4A) came to 1.2871; in [1] (reverse reaction, 5 mM NADH, Figure S4A,C,D) it was 2.282. Moreover, in data set [1] (reverse reaction, substrate varied, 150 µM NADH, 37 °C, pH 7.0), the kcat was determined as 1.3 s⁻¹. The Km in data set [5] is 40 µM; in [7], 85 µM. For the same molecule, the “effect on hPHGDH activity on […] 3PG” value in data set [6] is “not affected”.
In data set [8], CBR-5884 showed a maximal solubility of at most 1000 µM. In data set [9], the mechanism of inhibition result is “noncompetitive inhibition mechanism”.

B1: recombinant human D-3-phosphoglycerate dehydrogenase, His-tagged, full length (enzyme, UniProt O43175 1-533, looked up)
chain: T1 sequence (O43175 1-533)
notes: D-3-phosphoglycerate dehydrogenase, human, 533 amino acids; synthetic gene back-translated from GenBank CAG33076.1, codon-optimised for E. coli, cloned in pETM11 (NcoI/XhoI); The N-terminal 6xHis tag of pETM11 can be cut by TEV protease, but no cleavage is reported; the tagged monomer has a theoretical mass of 59.776 kDa and was detected with an anti-His antibody in the SEC peaks; Tetramer in …
Take B1: the “stoichiometry N” value in data set [10] came out at 4; in data set [13] it was 8. Moreover, the Km is 4480 ± 870 µM in [11] (setting [22]); 4480 µM in [11] (other: substrate varied, […] NAD+, Figure S3B,D-F); 133 µM in data set [12] (PSAT-coupled assay); 162 µM in data set [12] (hydrazine assay); 559 ± 75 µM in data set [14]; 0.90 ± 0.42 [Ki = 152 ± 56] mM in data set [15]. Besides, the Km in [16] (setting [23]) is 10 µM; in [16] (other: reverse reaction, 150 µM NADH, Figure S4A), 14.1 µM; in data set [16] (other: reverse reaction, 5 mM NADH, Figure S4A,C,D) it was 10.2 µM; in [16] (setting [24]), 0.014 ± 0.003 [Ki = 2.23 ± 0.37] mM; in data set [16] (setting [25]), 0.010 ± 0.003 [Ki = 1.26 ± 0.25] mM; in [18] (setting [26]) it was 41000 ± 19000 µM. For the same molecule, the Km was 41800 µM in data set [18] (other: substrate varied, 1.5 mM NAD+, Figure S3B,D-F, 37.0 °C); 5550 ± 2730 µM in [19]; 252 µM in data set [20] (other: 3PG varied, 120 µM NAD+, PSAT-coupled assay, Figure S3A, 37.0 °C); 317 µM in [20] (other: 3PG varied, 120 µM NAD+, hydrazine assay, Figure S3A, 37.0 °C); 255 ± 59 µM in data set [20] (setting [27]); 360 ± 61 µM in data set [20] (setting [28]). For the same molecule, in [20] (other: substrate varied, 1.5 mM NAD+, hydrazine assay, Figure S3B,D-F, 37.0 °C), the Km came out at 359 µM. Further, the kcat came to 0.44 ± 0.01 s⁻¹ in data set [11] (setting [22]); 3.37 s⁻¹ in [14]; 1.76 ± 0.20 s⁻¹ in [15]; 2.28 ± 0.14 s⁻¹ in data set [16] (setting [23]); 1.29 ± 0.09 s⁻¹ in data set [16] (setting [24]); 2.28 ± 0.14 s⁻¹ in data set [16] (setting [25]). The kcat in [17] was 5.41 s⁻¹; in data set [18] (setting [26]) it was 2.53 s⁻¹; in data set [19], 0.41 s⁻¹; in data set [20] (setting [27]) it was 1.48 s⁻¹; in data set [20] (setting [28]) it was 2.97 s⁻¹. Also, the kcat/Km was 98 M⁻¹ s⁻¹ in data set [11] (setting [22]); 15100 M⁻¹ s⁻¹ in data set [12] (other: forward reaction, NAD^+ varied, assays 1,2, 37 °C); 6000 M⁻¹ s⁻¹ in data set [14]; 1960 M⁻¹ s⁻¹ in data set [15]; 228000 M⁻¹ s⁻¹ in [16] (setting [23]); 91100 M⁻¹ s⁻¹ in data set [16] (setting [24]). Moreover, the kcat/Km in data set [16] (setting [25]) was found to be 228000 M⁻¹ s⁻¹; in data set [17] it was 36 M⁻¹ s⁻¹; in [18] (setting [26]) it was 61 M⁻¹ s⁻¹; in [19], 74 M⁻¹ s⁻¹; in data set [20] (setting [27]), 5800 M⁻¹ s⁻¹; in [20] (setting [28]), 8250 M⁻¹ s⁻¹.
